Measurements taken from patent US20080044436A1, “Method for Screening and Compositions for Treating Cancers” (priority 2004, published 2008).

How the values were obtained:
[1] = test system: pRb; experiment: Western blot of pRb phosphorylation in HTO cells; format: cell-based, human; conditions: HTO-GFP/TReP-132 cells after Dox removal, almost undetectable at 72 hours
Experimental: FIG. 9B: Protein extracts (20 μg) of HTO cells expressing GFP or GFP and TReP-132 under the control of doxycycline, incubated or not with dox for the indicated times, were analyzed by western blot using anti-pRb antibodies directed against all pRb forms (hyperphopshorylated, phosphorylated and hypophosphorylated) or only against pRb phosphorylated at Ser 780, a target residue of cyclin D1/CDK4.
Cells were washed twice with cold PBS (Phosphate Buffered Saline), then harvested either in cold RIPA buffer (1×PBS, 1% Nonidet P-40, 0.5% sodium deoxycholate, 0.1% SDS, phosphatase and protease inhibitors) for co-immunoprecipitation analysis, or in lysis buffer (50 mM Tris, pH 8.0, 0.1% IGEPAL (Sigma)) for kinase assays. The lysates were incubated for 30 min on ice and cell debris was eliminated by centrifugation. The extracts were then aliquoted and stored at −80° C. For western blot analysis, RIPA or lysate buffer was used. For immunoprecipitations, whole cell lysates (1 mg) in RIPA buffer were preincubated with 0.1 μg of mouse or rabbit IgG and 20 μl of protein A-Sepharose beads (Amersham Biosciences, Uppsala, Sweden) for 30 min at 4° C. […] The blots were then visualized with ECL reagent and quantified with SCANWISE and Perfect-IMAGE V-5.3 software (CLARA VISION, France).

[2] = test system: cyclin D1/CDK6; experiment: In vitro kinase assay of immunoprecipitated cyclin D1/CDK6 (pRb substrate); format: biochemical, human; conditions: TReP-132 induced for 48 hours in HTO-GFP/TReP-132 cells
Description: FIG. 9A: Kinase activities of each immunoprecipitated cyclin or CDK were quantified using pRb as substrate to measure cyclin D1/CDK6 activity, or histone H1 to measure cyclin A/CDK2 activity. The levels of phosphorylation of histone H1 or pRb in induced HTO cells (HeLa Tet Off) are expressed in relation to the levels in non-induced HTO cells (corresponding to level 1.0).
Cells were washed twice with cold PBS (Phosphate Buffered Saline), then harvested either in cold RIPA buffer (1×PBS, 1% Nonidet P-40, 0.5% sodium deoxycholate, 0.1% SDS, phosphatase and protease inhibitors) for co-immunoprecipitation analysis, or in lysis buffer (50 mM Tris, pH 8.0, 0.1% IGEPAL (Sigma)) for kinase assays. […] The blots were then visualized with ECL reagent and quantified with SCANWISE and Perfect-IMAGE V-5.3 software (CLARA VISION, France).
The kinase activities on histone H1 or Rb protein in the immunoprecipitates were measured as follows: the immunoprecipitates were first washed once with 1 ml of assay buffer (50 mM Tris-HCl, pH 7.4, 10 mM MgCl2, 1 mM dithiothreitol (DTT)), then resuspended in 20 μl of assay buffer containing 1 mg/ml casein (Sigma) and 1 μg of histone H1 or Rb protein (769) (sc-4112) as substrate. […]
The reaction was stopped by addition of 15 μl of electrophoresis buffer (3×). […] Phosphorylated Rb and histones were quantified by densitometry.

[3] = test system: p21^CIP1/WAF1 gene; experiment: RNase protection assay of CDKI transcription in HeLa cells, p21; format: cell-based, human; conditions: HeLa Tet-off cells, doxycycline removed
Experimental: All radiolabelled probes specific for the p130, Rb, p107, p53, p57, p27, p21, p19, p18, p14/p15, L32, and GAPDH genes were labelled with [α-^32P]UTP-ribonucleotide (PerkinElmer Life Sciences, Woodbridge, Ontario, CA) in the conditions specified in the “hCC-2 Muti-Probe Template Set” kit (Pharmingen, Mississauga, Ontario, CA). Ribonuclease protection experiments were carried out with the Ribonuclease III Protection kit (Ambion, Austin, Tex.). Ten micrograms of HeLa cell RNA were hybridized with the radiolabelled probe mixture at 56° C. and then digested for 45 min at 30° C. in RNase A/RNase T1 solution diluted 1:1000 in digestion buffer. The samples were separated on a polyacrylamide-6% urea gel.

B1: TReP-132: Transcriptional Regulating Protein of 132 kDa, polypeptide comprising SEQ ID NO: 2; here expressed in cells from vectors (protein)
chain: MGDQQLYKTNHVAHGSENLFYQQPPLGVHSGLNHNYGNAVTGGGMDAPQASPISPHFPQDTRDGLGLPVGSKNLGQMDTSRQGGWGSHAGPGNHVQLRGNLANSNMMWGAPAQAEPTDGYQYTYSQASEIRTQKLTSGVLHKLDSFTQVFANQNLRIQVNNMAQVLHTQSAVMDGAPDSALRQLLSQKPMEPPAPAIPSRYQQVPQQPHPGFTGGLSKPALQVGQHPTQGHLYYDYQQPLAQVPVQGGQPLQAPQMLSQHMQQMQQHQYYPPQQQQQAGQQRISMQEIQTQPQQIRPSQPQPPPQQQQPQQLQLQQRQGSMQIPQYYQPQPMMQHLQEQQQQQMHLQPPSYHRDPHQYTPEQAHTVQLIPLGSMSQYYYQEPQQPYSHPLYQQSHLSQHQQREDSQLKTYSSDRQAQAMLSSHGDLGPPDTGMGDPASSDLTRVSSTLPHRPLLSPSGIHLNNMGPQHQQLSPSAMWPQMHLPDGRAQPGSPESSGQPKGAFGEQFDAKNKLTCSICLKEFKNLPALNGHMRSHGGMRASPNLKQEEGEKVLPPQPQPPLPPPPPPPPPPQLPPEAESLTPMVMPVSVPVKLLPPKPSSQGFTNSTVAAPSARDKPASSMSDDEMPVLEIPRKHQPSVPKAEEPLKTVQEKKKFRHRPEPLFIPPPPSYNPNPAASYSGATLYQSQLRSPRVLGDHLLLDPTHELPPYTPPPMLSPVRQGSGLFSNVLISGHGPGAHPQLPLTPLTPTPRVLLCRSNSIDGSNVTVTPGPGEQTVDVEPRINIGLRFQAEIPELQDISALAQDTHKATLVWKPWPELENHDLQQRVENLLNLCCSSALPGGGTNSEFALHSLFEAKGDVMVALEMLLLRKPVRLKCHPLANYHYAGSDKWTSLERKLFNKALATYSKDFIFVQKMVKSKTVAQCVEYYYTWKKIMRLGRKHRTRLAEIIDDCVTSEEEEELEEEEEEDPEEDRKSTKEEESEVPKSPEPPPVPVLAPTEGPPLQALGQPSGSFICEMPNCGAVFSSRQALNGHARIHGGTNQVTKARGAIPSGKQKPGGTQSGYCSVKSSPSHSTTSGETDPTTIFPCKECGKVFFKIKSRNAHMKTHRQQEEQQRQKAQKAAFAAEMAATIERTTGPVGAPGLLPLDQLSLIKPIKDVDILDDDVVQQLGGVMEEAEVVDTDLLLDDQDSVLLQGDAEL
[1]
  phosphorylated pRb (ppRb) level: marked reduction
[2]
  in vitro kinase activity of cyclin D1/CDK6: reduced
[3]
  p21 gene transcription: induction
